Laboratory results: US20250122303A1, “TREATMENT AND PREVENTION OF CANCER USING HER3 ANTIGEN-BINDING MOLECULES” (Hummingbird Bioscience Pte. Ltd., priority 2021, published 2025)

Columns and labels:
[1] = format: physicochemical; conditions: 0.2 mg/mL in PBS, three samples
Procedure: 3.4 Analysis of thermostability by Differential Scanning Fluorimetry Briefly, triplicate reaction mixes of antibodies at 0.2 mg/mL and SYPRO Orange dye (ThermoFisher) were prepared in 25 μL of PBS, transferred to wells of MicroAmp Optical 96-Well Reaction Plates (ThermoFisher), and sealed with MicroAmp Optical Adhesive Film (ThermoFisher). Melting curves were run in a 7500 fast Real-Time PCR system (Applied Biosystems) selecting TAMRA as reporter and ROX as passive reference. The thermal profile included an initial step of 2 min at 25° C. and a final step of 2 min at 99° C., with a ramp rate of 1.2%. The first derivative of the raw data was plotted as a function of temperature to obtain the derivative melting curves. Melting temperatures (Tm) of the antibodies were extracted from the peaks of the derivative curves.
The thermostability of the variant was also analysed by Differential Scanning Fluorimetry analysis as described in Example 3.4.

[2] = biological target: T1, human EGFR (Homo sapiens, UniProt P00533); assay: ELISA specificity, human EGFR; format: binding; conditions: antibody up to 10 μg/ml
T1 construct: purchased Sino Biological Inc., China
Procedure: ELISAs were used to determine the binding specificity of the antibodies. The antibodies were analysed for binding to human HER3 polypeptide, as well as respective mouse, rat and monkey homologues of HER3 (Sino Biological Inc., China). The antibodies were also analysed for their ability to bind to human EGFR and human HER2 (Sino Biological Inc., China).
ELISAs were carried out according to standard protocols. Briefly, 96-well plates (Nunc, Denmark) were coated with 0.1 μg/ml of target polypeptide in phosphate-buffered saline (PBS) for 16 h at 4° C. After blocking for 1 h with 1% BSA in Tris buffer saline (TBS) at room temperature, the anti-HER3 antibody was serially diluted with the highest concentration being 10 μg/ml, and added to the plate. Post 1 h incubation at room temperature, plates were washed three times with TBS containing 0.05% Tween 20 (TBS-T) and were then incubated with a HRP-conjugated anti-His antibody (Life Technologies, Inc., USA) for 1 h at room temperature. […] The reaction was stopped with 2M H2SO4, and OD was measured at 450 nm.
The antibodies were analysed for their ability to bind to human HER3 polypeptide as well as human HER1 (EGFR) and human HER2 (Sino Biological Inc., China). […]
ELISAs were carried out according to standard protocols. […] The reaction was stopped with 2M H2SO4, and OD was measured at 450 nm.

[3] = test system: SNU16 cell-line derived mouse gastric carcinoma model; assay: SNU16 cell-line derived xenograft model; format: in vivo; conditions: SNU16, IP biweekly 500 μg, 9 doses
Procedure: (§1) Tumor volumes were measured 3 times a week using a digital caliper and calculated using the formula [L ×W2/2]. Study End point was considered to have been reaches once the tumors of the control arm measured >1.5 cm in length.
The model was established by subcutaneous injection of 1×10^6 SNU16 cells into the right flank (n=6 mice per treatment group).
10D1 was administered IP, biweekly at 500 μg per dose (for a total of 9 doses); a control treatment group received an equal volume of PBS.

[4] = biological target: heterodimerisation of HER3 and HER2 (Homo sapiens, UniProt P21860); assay: ELISA inhibition of HER2-HER3 interaction; format: biochemical; conditions: Example 4.1: His-tagged HER2 coated, biotinylated HER3
Procedure: The anti-HER3 antibodies were analysed for their ability to inhibit heterodimerisation of HER3 and HER2. Briefly, 96-well plates (Nunc, Denmark) were coated with 0.1 μg/ml His-tagged HER2 protein in PBS for 16 h at 4° C. After blocking for 1 h with 1% BSA in PBS at room temperature, recombinant biotinylated human HER3 protein was added in the presence of different concentrations of anti-HER3 antibody clone 10D1, and pates were incubated for 1 h at room temperature. Plates were subsequently washed three times, and then incubated with HRP-conjugated secondary antibody for 1 h at room temperature. After washing, plates were developed with colorimetric detection substrate 3,3′,5,5′-tetramethylbenzidine (Turbo-TMB; Pierce, USA) for 10 min. The reaction was stopped with 2M H2SO4, and OD was measured at 450 nm.
Plate-based ELISA dimerisation assays were carried out according to standard protocols. Plates were coated with 1 μg/ml HER2-Fc protein. […] Plates were then washed and incubated for 1 hour with secondary anti-HIS HRP antibody. Plates were washed, treated with TMB for 10 mins and the reaction was stopped using 2M H2SO4 stop solution. The absorbance was read at 450 nm.

[5] = test system: HCC-95 cell-line derived mouse model of squamous cell lung carcinoma; assay: HCC-95 cell-line derived xenograft model; format: in vivo; conditions: HCC-95, IP biweekly 500 μg, 4 doses
Procedure: as §1
The model was established by subcutaneous injection of 1×10^6 HCC-95 cells into the right flanks of female NCr nude mice (n=6 mice per treatment group).
10D1 was administered IP, biweekly at 500 μg per dose (for a total of 4 doses); a control treatment group received an equal volume of PBS.

binding to human EGFR (HER1) [2]: not to bind
B1: 10D1: anti-HER3 antibody clone, VH SEQ ID NO:24, VL SEQ ID NO:74; [1] of Example 2.2 (antibody, V domains shown)
VH: DVQLQESGPDLVKPSQSLSLTCTVTGYSITSGYSWHWIRQFPGNKLEWMGSIHYSGGTNYNPSLKSRISITRDTSKNQFFLQLNSVTTEDTATYFCARMTTAPRYPFDYWGQGTTLTVSS
VL: DIVMTQSQKFMSTSVGDRVSVTCKASQIVGSNVAWYQQKPGQSPKPLIYSASYRYSGVPDRFTASGSGTDFTLTITNVQSEDLAEYFCQQYSSHPLTFGAGTKLELK
Tm [1]: 70.3 °C | inhibition of tumor growth [3]: ~68% | inhibition of interaction between HER2 and HER3 [4]: inhibit interaction between HER2 and HER3 in a dose-dependent fashion | inhibition of tumor growth [5]: ~90%
